Laboratory results reported in the supplement of paper PMC10126150.
± gives the standard deviation of the averaged measurements.

Tested on: ATP
Test: switch fluorescence ratio, 500 uM ATP over buffer (Cy3 cluster intensity, sum of 5 cycles each) (fold (ratio)); higher = stronger signal-on switching upon ATP binding; sequences stand for … in TCGTCGGCAGCGTCAGATGTGTATAAGAGACAGTTTTTTTTTTTTTTTTTTTTTTTTT…TC
Details: aptamer strand: ATP DNA aptamer (quencher-CACCTGGGGGAGTATTGCGGAGGAAGG + anchor), 100 nM annealed; ATP concentration: 500 uM
Procedure, shortened: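 Switching-strand clusters labelled with Cy3 on a modified Illumina MiSeq flow-cell were annealed to 100 nM quencher-labelled ATP aptamer, imaged in selection buffer, and re-imaged after 15 min with 500 uM ATP at 22 °C. This was done over five cycles with NaOH stripping and re-annealing in between. The fluorescence ratio is summed target-cycle over summed buffer-cycle Cy3 intensity per cluster, averaged per switch-domain sequence, excluding clusters outside 100-1000 RFU.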
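Note: ATP exposure 15 min at 22 °C before imaging.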

TAGGATGCAG
switch fluorescence ratio: 0.957 ± 0.042

TAGGGGTTGT
switch fluorescence ratio: 1.02 ± 0.028

TCGGGGGACT
switch fluorescence ratio: 0.9827 ± 0.0063

CCAGGGCAGC
switch fluorescence ratio: 1.06 ± 0.079

ATGGACCTGC
switch fluorescence ratio: 1.06 ± 0.064

TGAGTGTGAG
switch fluorescence ratio: 0.985 ± 0.035

TTTTAAGGAA
switch fluorescence ratio: 1.04 ± 0.071

TTTACAATCG
switch fluorescence ratio: 0.9899 ± 0.0098

GCGAGAATAG
switch fluorescence ratio: 1 ± 0.014

CACTAACCCT
switch fluorescence ratio: 1.148 ± 0.0044

GGTAGAGGGT
switch fluorescence ratio: 0.978 ± 0.066

CGGGGAAGGC
switch fluorescence ratio: 1.13 ± 0.065

CTTACGGTCG
switch fluorescence ratio: 1.02 ± 0.038

CGGGTTCTTT
switch fluorescence ratio: 1.03 ± 0.11

TAAAAGAGAT
switch fluorescence ratio: 1.04 ± 0.026

CGAACGGTGG
switch fluorescence ratio: 0.998 ± 0.056

TCTGTTCTT
switch fluorescence ratio: 1 ± 0.023

TGTATTTAC
switch fluorescence ratio: 1.11 ± 0.048

TGCTACAGGA
switch fluorescence ratio: 1.02 ± 0.0049

GGGAAATGTG
switch fluorescence ratio: 1 ± 0.023

GATTGTTGGG
switch fluorescence ratio: 0.984 ± 0.02

AATCGGGCAG
switch fluorescence ratio: 1.04 ± 0.021

TTCCTTGCGT
switch fluorescence ratio: 1.14 ± 0.043

AGTTATTTCG
switch fluorescence ratio: 0.993 ± 0.018

TAGGTGGCGG
switch fluorescence ratio: 0.9906 ± 0.0071

TGTGGTTTCC
switch fluorescence ratio: 1.01 ± 0.022

GGTTTGAGGG
switch fluorescence ratio: 0.985 ± 0.028

GGTTGAGTG
switch fluorescence ratio: 0.977 ± 0.0033

TAAGTGTATG
switch fluorescence ratio: 1.007 ± 0.0034

TTAAAGGTAT
switch fluorescence ratio: 1.11 ± 0.063

CCACTAGTCG
switch fluorescence ratio: 1.02 ± 0.016

TCGTTATGTG
switch fluorescence ratio: 0.9829 ± 0.0085

GGCGGGGTCG
switch fluorescence ratio: 1.01 ± 0.038

TATCTTACGA
switch fluorescence ratio: 1.02 ± 0.041

AGTCTACTAT
switch fluorescence ratio: 1 ± 0.0088

TATACCGGTA
switch fluorescence ratio: 1.022 ± 0.0067

GACCATTTTT
switch fluorescence ratio: 1.02 ± 0.038

AAGGTAAGGG
switch fluorescence ratio: 1.01 ± 0.041

AAGGGGCCGG
switch fluorescence ratio: 1.0099 ± 8.3e-05

GGAATTTGGA
switch fluorescence ratio: 0.983 ± 0.057

GAGTGGGCTC
switch fluorescence ratio: 0.9879 ± 0.0045

GTTCCTTGGA
switch fluorescence ratio: 1.01 ± 0.045

AAAGTAGTAA
switch fluorescence ratio: 1.01 ± 0.037

TATGGGACTC
switch fluorescence ratio: 1.032 ± 0.0025

GAAGTTGTTG
switch fluorescence ratio: 0.9642 ± 0.0036

ATTGTGGGGG
switch fluorescence ratio: 0.991 ± 0.016

GCGAGCAATG
switch fluorescence ratio: 1.03 ± 0.027

TTAGCGGCAG
switch fluorescence ratio: 0.9883 ± 0.0034

AATGTAAAG
switch fluorescence ratio: 1.03 ± 0.011

TAAGTTTTCA
switch fluorescence ratio: 1.02 ± 0.023

TTTGAGTTT
switch fluorescence ratio: 0.981 ± 0.012

TCAGAATGGG
switch fluorescence ratio: 0.9833 ± 0.0047

CTGTTGAAAA
switch fluorescence ratio: 1.07 ± 0.022

CAATATGTAT
switch fluorescence ratio: 0.997 ± 0.063

GCGGGTTGGG
switch fluorescence ratio: 0.984 ± 0.047

AAGCACCCGT
switch fluorescence ratio: 1.12 ± 0.058

GGAAGTGGCA
switch fluorescence ratio: 1.01 ± 0.041

GACCATTGGA
switch fluorescence ratio: 1.006 ± 0.0011

CGTAGAGGAA
switch fluorescence ratio: 0.994 ± 0.03

GGACCAGGGA
switch fluorescence ratio: 1 ± 0.046

TTGGAAGTGG
switch fluorescence ratio: 0.9995 ± 0.0088

GGGAGTATAT
switch fluorescence ratio: 0.992 ± 0.016

TTTGGACGCA
switch fluorescence ratio: 1.12 ± 0.12

CATAATGAAG
switch fluorescence ratio: 1.01 ± 0.014

ACAGTCGACT
switch fluorescence ratio: 1.032 ± 0.0074

CGGTTGGGTT
switch fluorescence ratio: 0.99659 ± 6.3e-05

GGTGTTTTTA
switch fluorescence ratio: 1.07 ± 0.067

CGGGGTTTAG
switch fluorescence ratio: 0.992 ± 0.051

GGGTGAGGTG
switch fluorescence ratio: 0.98 ± 0.068

ACCATCAAAT
switch fluorescence ratio: 0.9853 ± 0.0068

GTTTTTATGA
switch fluorescence ratio: 0.973 ± 0.017

TTGCCTTTTG
switch fluorescence ratio: 1.08 ± 0.16

CAAAAAACCT
switch fluorescence ratio: 1.55 ± 0.55

TGTGAAGTTG
switch fluorescence ratio: 1.008 ± 0.0027

GCAATAGGGT
switch fluorescence ratio: 1.37 ± 0.037

TGGGGGACAG
switch fluorescence ratio: 1 ± 0.029

CGTTGGAATG
switch fluorescence ratio: 0.981 ± 0.015

TTTCACGCTC
switch fluorescence ratio: 1.12 ± 0.21

TACTGGGGTA
switch fluorescence ratio: 1.02 ± 0.028

TGATATGTGG
switch fluorescence ratio: 1.01 ± 0.038

GGTTGGTACT
switch fluorescence ratio: 1 ± 0.026

TGGGTTAGCC
switch fluorescence ratio: 1.01 ± 0.038

GTTGGGTATT
switch fluorescence ratio: 1.01 ± 0.021

GCCCGGGGAC
switch fluorescence ratio: 1.18 ± 0.12

TTTATCAGCT
switch fluorescence ratio: 0.9985 ± 0.0065

CAAATATACG
switch fluorescence ratio: 1.23 ± 0.23

TTATAATGGC
switch fluorescence ratio: 1.02 ± 0.08

GGGCTAGGCT
switch fluorescence ratio: 0.9684 ± 0.006

TTGGACTATA
switch fluorescence ratio: 1.02 ± 0.043

GACTCGGGCG
switch fluorescence ratio: 1.014 ± 0.0082

AGTTTGTCTG
switch fluorescence ratio: 0.9665 ± 0.007

AAATTTAAAT
switch fluorescence ratio: 1.02 ± 0.024

TAAAATGGAA
switch fluorescence ratio: 1.05 ± 0.1

TAGGGGACGT
switch fluorescence ratio: 0.992 ± 0.063

TGGTTCGGGG
switch fluorescence ratio: 0.96 ± 0.015

GCATTTTATT
switch fluorescence ratio: 0.9938 ± 0.0026

TAGAAGGGGA
switch fluorescence ratio: 0.994 ± 0.044

AGTCCAAGAG
switch fluorescence ratio: 0.9889 ± 0.0045

TACAGAAGCG
switch fluorescence ratio: 1.033 ± 0.0073

CTCTTGTGTT
switch fluorescence ratio: 1.02 ± 0.048

TCGTGTTTTC
switch fluorescence ratio: 1.03 ± 0.083

CTATTGAATC
switch fluorescence ratio: 1.022 ± 0.0015

GATTTTAATA
switch fluorescence ratio: 1.02 ± 0.016

AGTGTATAAA
switch fluorescence ratio: 1.042 ± 0.0077

GGTTTTGGTT
switch fluorescence ratio: 0.986 ± 0.025

CTAGGAGGGC
switch fluorescence ratio: 1 ± 0.027

GGTTGGGGTT
switch fluorescence ratio: 0.942 ± 0.039

TCAGGGTGTC
switch fluorescence ratio: 1.33 ± 0.17

TTGGAGAAAT
switch fluorescence ratio: 1.05 ± 0.025

GTTGGATGCT
switch fluorescence ratio: 0.949 ± 0.028

TACAGATTTG
switch fluorescence ratio: 1.01 ± 0.037

CACCGAGTTT
switch fluorescence ratio: 0.987 ± 0.02

ACAGAGGGAT
switch fluorescence ratio: 1.02 ± 0.018

GGTTTAAAGT
switch fluorescence ratio: 1.01 ± 0.014

GGGATTTTTA
switch fluorescence ratio: 0.987 ± 0.018

AATATTGTCG
switch fluorescence ratio: 0.994 ± 0.034

GCCGGGATGC
switch fluorescence ratio: 1.1 ± 0.11

AGTTTTTTAG
switch fluorescence ratio: 0.98 ± 0.015

GAGGGAGTTT
switch fluorescence ratio: 0.987 ± 0.025

ACTGATGAAG
switch fluorescence ratio: 0.991 ± 0.049

TTTCGGAACA
switch fluorescence ratio: 1.001 ± 0.0066

ATTTTGTTTC
switch fluorescence ratio: 0.987 ± 0.032

ATAACGGGAT
switch fluorescence ratio: 1.26 ± 0.42

AGTTACTTAG
switch fluorescence ratio: 1.07 ± 0.038

CACGTGTGTG
switch fluorescence ratio: 0.961 ± 0.029

GGTCGAGTGG
switch fluorescence ratio: 0.988 ± 0.0032

CGGATGAATG
switch fluorescence ratio: 0.999 ± 0.029

GAGTGTTCAG
switch fluorescence ratio: 0.997 ± 0.018

CATTTGGGCC
switch fluorescence ratio: 0.999 ± 0.017

GGGCATTGCG
switch fluorescence ratio: 0.9667 ± 0.0091

TTCGGATATA
switch fluorescence ratio: 0.9915 ± 0.0063

AGGATGGGCG
switch fluorescence ratio: 0.928 ± 0.039

CGCTTTTCTT
switch fluorescence ratio: 1.01 ± 0.0035

AAGGGGAGGC
switch fluorescence ratio: 0.971 ± 0.041

GTGGGGAGAG
switch fluorescence ratio: 0.9602 ± 0.0078

TTTGAGTAAA
switch fluorescence ratio: 1.01 ± 0.019

TGAATGGTTT
switch fluorescence ratio: 0.997 ± 0.031

TGCGTAGTTA
switch fluorescence ratio: 0.987 ± 0.012

TACAGTTGTA
switch fluorescence ratio: 0.971 ± 0.06

AGAAAGGGGC
switch fluorescence ratio: 1.31 ± 0.31

TAGTGTCGGA
switch fluorescence ratio: 0.9914 ± 0.0035

TCAAGGAGGT
switch fluorescence ratio: 1.01 ± 0.13

TGCAGCTGGA
switch fluorescence ratio: 0.977 ± 0.022

GTGATAAGGT
switch fluorescence ratio: 1 ± 0.021

CCTAAAAAGG
switch fluorescence ratio: 1.26 ± 0.29

AGGTCTGGCA
switch fluorescence ratio: 0.995 ± 0.016

TTTTTAGAGA
switch fluorescence ratio: 0.9912 ± 0.007

CATTTAGGCT
switch fluorescence ratio: 0.9997 ± 0.0058

AATCTCGTGG
switch fluorescence ratio: 0.995 ± 0.051

CCTAATCGGT
switch fluorescence ratio: 1.006 ± 0.0095

ACACTTTCG
switch fluorescence ratio: 1.018 ± 0.0011

TTTTTGTGGG
switch fluorescence ratio: 0.993 ± 0.023

AGGTAGAGGA
switch fluorescence ratio: 1.01 ± 0.035
